Measurements from paper PMC8882475.

Target: FcRn (UniProt P55899)
Assay: BLI

Substance: SI–F019, huACE2 (18–615) - IgG1 Fc null (from UniProt Q9BYF1-1 18-615) (Fc fusion)
- Kd: 37.6 nM
